According to US20190169241A1 (BOARD OF TRUSTEES OF THE UNIVERSITY OF ILLINOIS, published 2019):
Each block holds one binder with its values, some of them ahead of it. No end group written: not given here.

Experiments:
[1] = biological target: T1, vascular endothelial growth factor receptor 2 (VEGFR2), endogenous, from HUVEC lysates (human, UniProt P35968 20-1356); test: pull-down of endogenous VEGFR2 from HUVEC lysate with the recombinant truncation on beads, western blot with anti-VEGFR2 antibody
T1 construct: Endogenous receptor from cell lysate, detected by western blot with anti-VEGFR2 antibody or by mass spectrometry; also called Flk-1
T1 sequence (P35968 20-1356 limits assumed): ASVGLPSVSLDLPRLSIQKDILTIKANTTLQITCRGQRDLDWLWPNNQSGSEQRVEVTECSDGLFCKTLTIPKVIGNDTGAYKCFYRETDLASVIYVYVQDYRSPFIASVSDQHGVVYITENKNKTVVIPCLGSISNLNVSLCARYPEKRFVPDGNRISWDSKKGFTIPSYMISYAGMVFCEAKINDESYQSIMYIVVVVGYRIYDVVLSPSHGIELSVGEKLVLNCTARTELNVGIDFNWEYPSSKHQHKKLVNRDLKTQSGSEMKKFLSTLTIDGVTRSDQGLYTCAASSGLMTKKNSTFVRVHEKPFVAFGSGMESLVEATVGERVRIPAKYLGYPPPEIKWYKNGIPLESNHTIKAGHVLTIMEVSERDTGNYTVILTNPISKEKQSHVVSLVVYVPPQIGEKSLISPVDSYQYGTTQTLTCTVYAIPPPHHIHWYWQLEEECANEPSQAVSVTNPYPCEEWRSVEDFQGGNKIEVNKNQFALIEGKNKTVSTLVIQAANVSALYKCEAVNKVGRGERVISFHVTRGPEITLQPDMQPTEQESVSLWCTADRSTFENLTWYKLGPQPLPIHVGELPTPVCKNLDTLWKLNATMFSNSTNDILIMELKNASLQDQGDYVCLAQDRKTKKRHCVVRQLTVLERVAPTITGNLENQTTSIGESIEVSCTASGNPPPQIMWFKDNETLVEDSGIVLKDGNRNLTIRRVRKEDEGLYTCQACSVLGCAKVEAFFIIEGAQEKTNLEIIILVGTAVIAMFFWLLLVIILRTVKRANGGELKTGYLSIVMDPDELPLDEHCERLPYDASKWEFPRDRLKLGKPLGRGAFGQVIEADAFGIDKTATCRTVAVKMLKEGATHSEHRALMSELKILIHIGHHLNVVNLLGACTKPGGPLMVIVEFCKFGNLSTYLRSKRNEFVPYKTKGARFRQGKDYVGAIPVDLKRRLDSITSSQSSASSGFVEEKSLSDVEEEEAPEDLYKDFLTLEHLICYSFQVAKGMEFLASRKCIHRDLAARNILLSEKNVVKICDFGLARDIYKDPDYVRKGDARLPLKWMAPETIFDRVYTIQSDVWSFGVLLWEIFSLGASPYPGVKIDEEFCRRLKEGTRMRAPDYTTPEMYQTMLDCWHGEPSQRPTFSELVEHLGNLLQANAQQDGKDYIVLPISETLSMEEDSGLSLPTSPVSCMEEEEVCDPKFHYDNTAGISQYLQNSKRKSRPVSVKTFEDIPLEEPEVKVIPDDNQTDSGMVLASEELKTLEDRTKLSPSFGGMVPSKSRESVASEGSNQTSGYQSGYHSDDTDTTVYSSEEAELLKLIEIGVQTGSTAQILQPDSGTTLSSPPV

[2] = biological target: T1, vascular endothelial growth factor …; test: pull-down from HUVEC lysate with recombinant protein on beads, anti-VEGFR2 western blot
Description: The DUFs were identified from amino acid sequence similarity on the Pfam database. It has been previously shown that both domains of DUF3694 directly bind recombinant VEGFR2 in vitro (Yamada, et al. (2007) Biochemistry 46:10039-45). […] DUF2 was divided into 3 parts, DUF2A (residues 1111-1167), DUF2B (residues 1168-1216), and DUF2C (residues 1217-1281) and each part was expressed as a recombinant protein in bacteria. VEGFR2 was abundantly expressed in HUVECs; thus, cell lysate from HUVECs was incubated with these recombinant proteins on beads, and VEGFR2 binding was determined using the anti-VEGFR2 antibody.

[3] = biological target: T1, vascular endothelial growth factor …; test: pull-down from HUVEC lysates, peptide on streptavidin beads
[4] = biological target: PDGFRα, endogenous, found in the pull-down by mass spectrometry (UniProt P16234 24-1089, limits assumed); test: pull-down with peptide on streptavidin beads, mass spec analysis
[5] = biological target: PDGFRβ, endogenous, found in the pull-down by mass spectrometry (UniProt P09619 33-1106, limits assumed); test: as above
Sequence of PDGFRβ, endogenous, found in the pull-down by mass spectrometry (P09619 33-1106 limits assumed): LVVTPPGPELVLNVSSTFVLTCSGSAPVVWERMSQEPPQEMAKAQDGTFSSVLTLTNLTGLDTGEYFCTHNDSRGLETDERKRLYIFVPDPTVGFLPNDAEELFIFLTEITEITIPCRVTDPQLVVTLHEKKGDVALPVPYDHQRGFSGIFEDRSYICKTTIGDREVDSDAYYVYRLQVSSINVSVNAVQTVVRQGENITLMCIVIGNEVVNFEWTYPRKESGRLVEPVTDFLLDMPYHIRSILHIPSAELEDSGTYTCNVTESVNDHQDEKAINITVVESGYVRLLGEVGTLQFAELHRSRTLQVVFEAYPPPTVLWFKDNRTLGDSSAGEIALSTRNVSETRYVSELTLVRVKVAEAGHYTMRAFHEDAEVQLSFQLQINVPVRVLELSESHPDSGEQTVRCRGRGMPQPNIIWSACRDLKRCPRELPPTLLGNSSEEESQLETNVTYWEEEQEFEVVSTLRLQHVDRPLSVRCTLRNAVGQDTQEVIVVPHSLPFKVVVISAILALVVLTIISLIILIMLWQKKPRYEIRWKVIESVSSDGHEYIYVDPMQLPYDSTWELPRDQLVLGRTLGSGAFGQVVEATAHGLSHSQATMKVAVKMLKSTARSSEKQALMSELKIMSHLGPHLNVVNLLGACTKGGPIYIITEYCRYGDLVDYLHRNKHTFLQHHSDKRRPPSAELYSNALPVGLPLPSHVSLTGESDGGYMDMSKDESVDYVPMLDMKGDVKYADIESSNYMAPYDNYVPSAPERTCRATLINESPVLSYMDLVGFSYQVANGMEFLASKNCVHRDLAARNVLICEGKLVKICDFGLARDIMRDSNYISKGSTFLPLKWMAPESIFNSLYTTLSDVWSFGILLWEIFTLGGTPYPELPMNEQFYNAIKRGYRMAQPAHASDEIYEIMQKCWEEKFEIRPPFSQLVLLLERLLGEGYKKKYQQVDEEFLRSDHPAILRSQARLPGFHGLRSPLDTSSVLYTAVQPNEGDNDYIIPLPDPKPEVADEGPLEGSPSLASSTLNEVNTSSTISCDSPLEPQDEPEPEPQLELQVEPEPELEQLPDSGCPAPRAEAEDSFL

[6] = biological target: EGFR, endogenous, found in the pull-down by mass spectrometry (UniProt P00533 25-1210, limits assumed); test: as above
[7] = biological target: T2, VEGFR2, recombinant cytosolic domain (Fisher Scientific) (UniProt P35968 789-1356, limits assumed); test: SPR (BIACORE), peptide on avidin-coated chip, recombinant cytosolic domain as analyte
T2 construct: domain: cytosolic domain; Analyte in the BIACORE experiment
T2 sequence (P35968 789-1356 limits assumed): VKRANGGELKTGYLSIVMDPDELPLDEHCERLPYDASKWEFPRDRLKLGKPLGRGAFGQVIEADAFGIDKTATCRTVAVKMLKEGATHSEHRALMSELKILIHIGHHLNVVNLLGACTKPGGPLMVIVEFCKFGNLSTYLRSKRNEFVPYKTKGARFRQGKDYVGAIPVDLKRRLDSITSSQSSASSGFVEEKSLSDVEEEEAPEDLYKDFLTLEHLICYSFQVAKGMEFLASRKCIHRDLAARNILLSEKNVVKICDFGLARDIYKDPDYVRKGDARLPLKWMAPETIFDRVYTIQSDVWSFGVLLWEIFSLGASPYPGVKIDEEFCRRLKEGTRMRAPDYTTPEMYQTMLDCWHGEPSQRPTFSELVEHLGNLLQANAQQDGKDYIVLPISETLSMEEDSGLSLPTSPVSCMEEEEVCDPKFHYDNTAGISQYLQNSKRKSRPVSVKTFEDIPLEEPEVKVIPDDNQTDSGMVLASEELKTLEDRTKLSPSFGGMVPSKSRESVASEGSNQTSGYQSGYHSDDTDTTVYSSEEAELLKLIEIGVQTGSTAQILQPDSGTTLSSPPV

Par1 = biological target: T3, Par1 (UniProt P25116 22-425, limits assumed); test: pull-down with peptide on streptavidin beads, mass spec analysis
T3 sequence (looked up): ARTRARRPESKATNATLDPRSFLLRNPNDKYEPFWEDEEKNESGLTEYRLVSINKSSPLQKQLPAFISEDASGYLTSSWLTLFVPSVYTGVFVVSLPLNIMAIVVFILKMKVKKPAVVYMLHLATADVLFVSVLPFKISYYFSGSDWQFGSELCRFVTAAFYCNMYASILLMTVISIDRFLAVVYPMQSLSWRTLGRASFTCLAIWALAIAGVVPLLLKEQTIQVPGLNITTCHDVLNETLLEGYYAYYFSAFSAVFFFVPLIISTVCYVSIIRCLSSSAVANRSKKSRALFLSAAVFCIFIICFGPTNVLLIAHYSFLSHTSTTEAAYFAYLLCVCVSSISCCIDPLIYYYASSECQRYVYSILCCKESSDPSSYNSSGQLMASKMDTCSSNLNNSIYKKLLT

Tie2 = Tie2 (UniProt Q02763 23-1124, limits assumed); test: as above
Sequence of Tie2 (Q02763 23-1124 limits assumed): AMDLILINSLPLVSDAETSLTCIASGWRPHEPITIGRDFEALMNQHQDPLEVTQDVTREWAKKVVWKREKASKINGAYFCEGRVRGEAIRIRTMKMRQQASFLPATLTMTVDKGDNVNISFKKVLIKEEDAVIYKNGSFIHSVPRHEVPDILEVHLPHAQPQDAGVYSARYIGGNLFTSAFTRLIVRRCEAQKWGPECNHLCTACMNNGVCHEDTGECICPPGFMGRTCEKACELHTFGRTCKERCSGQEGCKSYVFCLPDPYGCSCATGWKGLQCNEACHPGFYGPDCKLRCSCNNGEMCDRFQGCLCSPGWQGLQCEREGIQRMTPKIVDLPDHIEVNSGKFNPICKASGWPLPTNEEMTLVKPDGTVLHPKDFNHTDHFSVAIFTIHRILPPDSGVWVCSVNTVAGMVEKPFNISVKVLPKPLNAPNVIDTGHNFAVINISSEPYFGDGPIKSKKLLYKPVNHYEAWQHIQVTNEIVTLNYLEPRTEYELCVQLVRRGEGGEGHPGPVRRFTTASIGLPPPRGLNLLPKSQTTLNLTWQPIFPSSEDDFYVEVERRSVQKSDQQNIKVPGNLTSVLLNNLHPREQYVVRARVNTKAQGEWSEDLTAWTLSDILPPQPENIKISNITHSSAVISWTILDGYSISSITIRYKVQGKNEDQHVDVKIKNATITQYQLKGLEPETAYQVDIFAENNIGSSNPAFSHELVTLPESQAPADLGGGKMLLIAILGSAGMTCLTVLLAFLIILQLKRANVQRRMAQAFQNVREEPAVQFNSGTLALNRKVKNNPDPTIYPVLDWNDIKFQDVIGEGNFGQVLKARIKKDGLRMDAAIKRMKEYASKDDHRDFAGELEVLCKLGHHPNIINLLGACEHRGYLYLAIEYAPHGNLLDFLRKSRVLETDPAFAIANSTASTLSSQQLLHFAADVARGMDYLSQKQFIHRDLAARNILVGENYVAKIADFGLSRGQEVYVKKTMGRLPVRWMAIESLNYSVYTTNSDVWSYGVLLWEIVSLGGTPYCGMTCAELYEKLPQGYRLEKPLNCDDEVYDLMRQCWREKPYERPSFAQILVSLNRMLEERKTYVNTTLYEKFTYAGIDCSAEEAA

B1: C4 (peptide, UniProt Q9NQT8 1226-1251, looked up)
single chain: SWDSAVHGCPQLSRGTPVDERLFLIV
notes: recombinant truncated mutant expressed in bacteria with His-tag and S-tag; the sheet prints only 'C4'; also called DUF2C4; DUF C4 (1226-1251 aa)
- binding result [1]: no binding

B2: C7 (peptide, not shown: small tags and cut ends)
peptide: ADMQLVLRKRICVNVHGRQGF
notes: the sheet prints only 'C7'; also called DUF2C7; DUF C7 (1261-1281 aa)
- binding result [1]: no binding

B3: DUF2A (residues 1111-1167 of KIF13B), recombinant protein from bacteria (other, human, UniProt Q9NQT8 1111-1167, looked up)
chain: QKLVSKRDKTEDDADREAQLLEMRLTLTEERNAVMVPSAGSGIPGAPAEWTPVPGME
notes: range 1111-1167; not shown: His-tag and S-tag
- binding result [2]: no binding

Other lines, results leading:

- binding result [1]: no binding
B4: C1 (peptide, UniProt Q9NQT8 1202-1240, looked up)
single chain: GEEEEEFFELQIVKQHDGEVKAEASWDSAVHGCPQLSRG
notes: recombinant truncated mutant expressed in bacteria with His-tag and S-tag; the sheet prints only 'C1'; also called DUF2C1; DUF C1 (1202-1240 aa)

- binding result [3]: no binding
- binding result [4]: no binding
- binding result [5]: no binding
- binding result [6]: no binding
- binding result [7]: no binding
Binder: RVRASELRSFSRMLAGDPGCSPG (peptide, UniProt Q9NQT8 1650-1672, looked up, also: biotin-tag (position not given here), range 1650-1672) [CT23 (residues 1650 to 1672 of KIF13B), synthetic negative control peptide with a biotin-tag]

- binding result (Par1): no binding
- binding result (Tie2): no binding
- Kd [7]: 5.5 nM
B5: Biotin-DUF2C5 peptide (synthetic, residues 1238-1260 of KIF13B with a biotin-tag) (peptide)
peptide: SRGTPVDERLFLIVRVTVQLSHP
modifications: also: biotin-tag (position not given here)
notes: Immobilised on streptavidin beads (pull-down, mass spectrometry) or on an avidin-coated BIACORE chip

- binding result [2]: no binding
B6: DUF2B (residues 1168-1216 of KIF13B), recombinant protein from bacteria (other, human, UniProt Q9NQT8 1168-1216, looked up)
chain: THIPVIFLDLNADDFSSQDNLDDPEAGGWDATLTGEEEEEFFELQIVKQ
notes: range 1168-1216; not shown: His-tag and S-tag
